{"source": "patent WO2018135651A1", "about": "(dated 2018)", "molecular_target": "T1, Human survivin (1-142 aa, N-terminal calmodulin tag, recombinant, #SUR0801, ATGen Co., Ltd.) (human, UniProt O15392 1-142)", "T1 construct": "range 1-142; Bought recombinant protein, used in solution at 100, 10 and 1 ng/mL; also called antigen; not shown: N-terminal calmodulin tag of the bought product", "T1 sequence (O15392 whole entry, the tested form may be a part)": "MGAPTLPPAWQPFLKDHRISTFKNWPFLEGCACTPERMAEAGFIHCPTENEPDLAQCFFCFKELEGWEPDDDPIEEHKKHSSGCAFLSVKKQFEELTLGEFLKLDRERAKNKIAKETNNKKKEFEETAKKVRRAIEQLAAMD", "assay": "sandwich ELISA; VHH-STM complex adsorbed to the plate as capture, survivin in solution, detection with rabbit anti-survivin polyclonal antibody", "data": [{"binder": "VHH-STM complex (antibody complex consisting of an anti-human survivin VHH antibody and a stefin A mutant) (VHH, Single-chain fusion: anti-human survivin VHH, linker, stefin A mutant (STM), His tag, C-terminal Cys; Secreted from Brevibacillus choshinensis and Ni-NTA purified; Adsorbed directly to the plate as capture reagent; also called VHH-STM conjugate; VHH antibody-STM conjugate) VHH: EVQLVESGGGSVQAGGSLRLSCAASGVSNTDMIMIWFRQAPGKEREGVLAAIYKNSTYYADSVKGRFTISQDNAKNTVYLQMNSLKPEDTAIYYCAAIRAVIGRHIRPHIYWGQGTQVTVSS", "values": [{"measurement": "binding result", "result": "binds"}]}]}
